These results are taken from patent publication US20030157054A1 (Merck KGaA, published 2003).

The target in experiment [1] is soluble human EpCAM-murine Fc (KSA-muFc) (human) (UniProt P16422). Briefly: ELISA on plates coated with KSA-muFc; Group 1.
For experiment [2] the target is unchanged. Briefly: EpCAM binding assay (ELISA on KSA-muFc). (In general: ELISA stands for enzyme-linked immunosorbent assay.)
The target is the same in experiment [3]. Nature of the experiment: ELISA on plates coated with KSA-muFc; Group 2, control to which the group is normalized.
For experiment [4], the target named is T1, human epithelial cell adhesion molecule (EpCAM) on the cell surface (human, UniProt P16422 24-314).
T1 construct: whole, on cells; also called KS antigen; KSA
T1 sequence (looked up): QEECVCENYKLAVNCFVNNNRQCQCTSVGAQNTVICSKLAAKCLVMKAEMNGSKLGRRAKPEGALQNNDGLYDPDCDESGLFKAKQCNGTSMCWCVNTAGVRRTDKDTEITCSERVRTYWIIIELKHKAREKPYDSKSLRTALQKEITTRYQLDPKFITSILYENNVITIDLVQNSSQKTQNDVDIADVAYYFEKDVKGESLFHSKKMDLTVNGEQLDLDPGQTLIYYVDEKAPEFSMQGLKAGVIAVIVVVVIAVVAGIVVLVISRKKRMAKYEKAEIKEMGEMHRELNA
Nature of the experiment: 125I-labelled protein on EpCAM-positive PC-3 tumor cells, saturation binding with Scatchard analysis. How it is done: Purified KS-1/4 antibodies were iodinated with ¹²⁵I using standard techniques, and increasing concentrations of labeled protein were incubated with the EpCAM-positive cell line PC-3. Saturation binding curves were generated and the dissociation constants were determined by Scatchard analysis.
In addition, the binding of iodinated VK8/VH7 and VK8/VH7-IL2 to EpCAM expressed on the surface of PC-3 tumor cells was compared to binding of iodinated VK0/VH0-IL2, using methods described in Example 1F. Within experimental error, essentially identical binding affinities were found for VK8/VH7 and VK0/VH0, and for VK8/VH7-IL2 and VK0/VH0-IL2.

Experiment [5] addresses soluble human EpCAM-murine Fc (KSA-muFc) (human) (UniProt P16422). Nature of the experiment: ELISA on plates coated with KSA-muFc; Group 2, normalized to VK8/VH7.
The target is the same in experiment [6]. Briefly: ELISA on plates coated with KSA-muFc; Group 3, normalized to VK8/VH7-IL2.
For experiment [7] the target is unchanged. Briefly: SPR (Biacore), EpCAM-muFc coupled to CM5 chip, fusion protein in solution. A general note: Surface plasmon resonance follows binding to a sensor surface in real time, without labels.

A value given as a limit tells only on which side of the number the result lay.

On to VK0/VH0 (Hybridoma chKS-1/4) (antibody), for which the Relative binding (fold-increase in protein concentration required to reach an equivalent level of binding) in experiment [1] worked out at 1 fold.

B1: VK6/VH6 (Construct 1) (antibody, V domains shown)
VH: QVQLVQSGAEVKKPGESVKISCKASGYTFTNYGMNWVRQAPGKGLEWMGWINTYTGEPTYAQKFQGRVTISLDTSTSTAYLQLSSLRAEDTAVYFCVRFISKGDYWGQGTSVTVSS
VL: EIVLTQSPATLSLSPGERVTLTCSASSSVSYMLWYQQKPGQAPKLLIFDTSNLASGIPARFSGSGSGTDYTLTISSLEPEDFAVYYCHQRSGYPYTFGGGTKLEIK
Consider B1, for which, in experiment [2], the fold less active in an EpCAM binding assay is > 10 fold.

B2: VK8/VH7 (Construct 3) (antibody, V domains shown)
VH: QIQLVQSGAEVKKPGETVKISCKASGYTFTNYGMNWVKQTPGKGLKWMGWINTYTGEPTYADDFKGRFAFSLETSTSTAFLQINNLRSEDTATYFCVRFISKGDYWGQGTSVTVSS
VL: EIVLTQSPATLSLSPGERVTLTCSASSSVSYMLWYQQKPGSSPKPWIFDTSNLASGFPARFSGSGSGTSYSLIISSMEAEDAATYYCHQRSGYPYTFGGGTKLEIK
notes: Intact antibody with human constant regions (pdHL7 vector); also called KS antibody (Construct 3)
In the case of B2, the Relative binding (fold-increase in protein concentration required to reach an equivalent level of binding) in experiment [3] came out at 1 fold. Further, the binding result in experiment [4] is “binds”.

B3: VK0/VH'369 ('369 chKS-1/4) (antibody, V domains shown)
VH: QIQLVQSGPELKKPGETVKISCKASGYTFTNYGMNWVKQTPGKGLKWMGWINTYTGEPTYADDFKGRFAFSLETSASTAFLQIQQPQNMRTMATYFCVRFISKGDYWGQGTSVTVSS
VL: QILLTQSPAIMSASPGEKVTMTCSASSSVSYMLWYQQKPGSSPKPWIFDTSNLASGFPARFSGSGSGTSYSLIISSMEAEDAATYYCHQRSGYPYTFGGGTKLEIK
Turning to B3, the Relative binding (fold-increase in protein concentration required to reach an equivalent level of binding) in experiment [1] was > 30 fold.

B4: VK1/VH7 (antibody, V domains shown)
VH: QIQLVQSGAEVKKPGETVKISCKASGYTFTNYGMNWVKQTPGKGLKWMGWINTYTGEPTYADDFKGRFAFSLETSTSTAFLQINNLRSEDTATYFCVRFISKGDYWGQGTSVTVSS
VL: QIVLTQSPASLAVSPGQRATITCSASSSVSYILWYQQKPGQPPKPWIFDTSNLASGFPSRFSGSGSGTSYTLTINSLEAEDAATYYCHQRSGYPYTFGGGTKVEIK
In the case of B4, the Relative binding (fold-increase in protein concentration required to reach an equivalent level of binding) in experiment [5] was determined as 1 fold.

B5: VK0/VH1 (antibody, V domains shown)
VH: QIQLVQSGPELKKPGSSVKISCKASGYTFTNYGMNWVRQAPGKGLKWMGWINTYTGEPTYADDFKGRFTITAETSTSTLYLQLNNLRSEDTATYFCVRFMSKGDYWGQGTTVTVSS
VL: QILLTQSPAIMSASPGEKVTMTCSASSSVSYMLWYQQKPGSSPKPWIFDTSNLASGFPARFSGSGSGTSYSLIISSMEAEDAATYYCHQRSGYPYTFGGGTKLEIK
With B5, the Relative binding (fold-increase in protein concentration required to reach an equivalent level of binding) in experiment [5] worked out at 8 fold.

B6: VK1/VH1 (antibody, V domains shown)
VH: QIQLVQSGPELKKPGSSVKISCKASGYTFTNYGMNWVRQAPGKGLKWMGWINTYTGEPTYADDFKGRFTITAETSTSTLYLQLNNLRSEDTATYFCVRFMSKGDYWGQGTTVTVSS
VL: QIVLTQSPASLAVSPGQRATITCSASSSVSYILWYQQKPGQPPKPWIFDTSNLASGFPSRFSGSGSGTSYTLTINSLEAEDAATYYCHQRSGYPYTFGGGTKVEIK
As for B6, the Relative binding (fold-increase in protein concentration required to reach an equivalent level of binding) in experiment [5] amounted to 2 fold.

B7: VK1/VH2.2-IL2 (protein)
VL: QIVLTQSPASLAVSPGQRATITCSASSSVSYILWYQQKPGQPPKPWIFDTSNLASGFPSRFSGSGSGTSYTLTINSLEAEDAATYYCHQRSGYPYTFGGGTKVEIK
VH: QIQLVQSGPELKKPGSSVKISCKASGYTFTNYGMNWVRQAPGKGLKWMGWINTYTGEPTYADDFKGRFTITAETSTSTLYLQLNNLRSEDTATYFCVRFIVSKGDYWGQGTTVTVSS
As to B7, the Relative binding (fold-increase in protein concentration required to reach an equivalent level of binding) in experiment [6] is > 10 fold.

B8: VK1/VH2.3-IL2 (protein)
VL: QIVLTQSPASLAVSPGQRATITCSASSSVSYILWYQQKPGQPPKPWIFDTSNLASGFPSRFSGSGSGTSYTLTINSLEAEDAATYYCHQRSGYPYTFGGGTKVEIK
VH: QIQLVQSGPELKKPGSSVKISCKASGYTFTNYGMNWVRQAPGKGLKWMGWINTYTGEPTYADDFKGRFTITAETSTSTLYLQLNNLRSEDTATYFCVRFISAKGDYWGQGTTVTVSS
With B8, the Relative binding (fold-increase in protein concentration required to reach an equivalent level of binding) in experiment [6] was determined as 7 fold.

B9: VK1/VH2.5-IL2 (protein)
VL: QIVLTQSPASLAVSPGQRATITCSASSSVSYILWYQQKPGQPPKPWIFDTSNLASGFPSRFSGSGSGTSYTLTINSLEAEDAATYYCHQRSGYPYTFGGGTKVEIK
VH: QIQLVQSGPELKKPGSSVKISCKASGYTFTNYGMNWVRQAPGKGLKWMGWINTYTGEPTYADDFKGRFTITAETSTSTLYLQLNNLRSEDTATYFCVRFISKGDYWGTGTTVTVSS
As for B9, in experiment [5], the Relative binding (fold-increase in protein concentration required to reach an equivalent level of binding) is 3 to 4 fold.

B10: VK1/VH2-IL2 (protein)
VL: QIVLTQSPASLAVSPGQRATITCSASSSVSYILWYQQKPGQPPKPWIFDTSNLASGFPSRFSGSGSGTSYTLTINSLEAEDAATYYCHQRSGYPYTFGGGTKVEIK
VH: QIQLVQSGPELKKPGSSVKISCKASGYTFTNYGMNWVRQAPGKGLKWMGWINTYTGEPTYADDFKGRFTITAETSTSTLYLQLNNLRSEDTATYFCVRFISKGDYWGQGTTVTVSS
Consider B10, for which the Relative binding (fold-increase in protein concentration required to reach an equivalent level of binding) in experiment [5] stood at 1.5 fold. In experiment [7], this molecule returned a koff of 0.00053 s⁻¹ and an association rate constant (kon) of 170000 M⁻¹ s⁻¹.

B11: VK1/VH2 (antibody, V domains shown)
VH: QIQLVQSGPELKKPGSSVKISCKASGYTFTNYGMNWVRQAPGKGLKWMGWINTYTGEPTYADDFKGRFTITAETSTSTLYLQLNNLRSEDTATYFCVRFISKGDYWGQGTTVTVSS
VL: QIVLTQSPASLAVSPGQRATITCSASSSVSYILWYQQKPGQPPKPWIFDTSNLASGFPSRFSGSGSGTSYTLTINSLEAEDAATYYCHQRSGYPYTFGGGTKVEIK
Turning to B11, the Relative binding (fold-increase in protein concentration required to reach an equivalent level of binding) in experiment [5] fell in the range of 1 to 2 fold.

B12: VK1/VH2.4-IL2 (protein)
VL: QIVLTQSPASLAVSPGQRATITCSASSSVSYILWYQQKPGQPPKPWIFDTSNLASGFPSRFSGSGSGTSYTLTINSLEAEDAATYYCHQRSGYPYTFGGGTKVEIK
VH: QIQLVQSGPELKKPGSSVKISCKASGYTFTNYGMNWVRQAPGKGLKWMGWINTYTGEPTYADDFKGRFTITAETSTSTLYLQLNNLRSEDTATYFCVRFISKTGDYWGQGTTVTVSS
With B12, in experiment [6], the Relative binding (fold-increase in protein concentration required to reach an equivalent level of binding) stood at 3 fold.

B13: VK1/VH1-IL2 (protein)
VL: QIVLTQSPASLAVSPGQRATITCSASSSVSYILWYQQKPGQPPKPWIFDTSNLASGFPSRFSGSGSGTSYTLTINSLEAEDAATYYCHQRSGYPYTFGGGTKVEIK
VH: QIQLVQSGPELKKPGSSVKISCKASGYTFTNYGMNWVRQAPGKGLKWMGWINTYTGEPTYADDFKGRFTITAETSTSTLYLQLNNLRSEDTATYFCVRFMSKGDYWGQGTTVTVSS
For B13, the Relative binding (fold-increase in protein concentration required to reach an equivalent level of binding) in experiment [5] was determined as 5 fold; in experiment [6], 2 fold. Further, the koff in experiment [7] is 0.0022 s⁻¹. The kon in experiment [7] came to 280000 M⁻¹ s⁻¹.

B14: VK1/VH2.1-IL2 (protein)
VL: QIVLTQSPASLAVSPGQRATITCSASSSVSYILWYQQKPGQPPKPWIFDTSNLASGFPSRFSGSGSGTSYTLTINSLEAEDAATYYCHQRSGYPYTFGGGTKVEIK
VH: QIQLVQSGPELKKPGSSVKISCKASGYTFTNYGMNWVRQAPGKGLKWMGWINTYTGEPTYADDFKGRFTITAETSTSTLYLQLNNLRSEDTATYFCVRFIISKGDYWGQGTTVTVSS
As for B14, in experiment [6], the Relative binding (fold-increase in protein concentration required to reach an equivalent level of binding) was > 10 fold.

As a reminder, the koff is a measure of how fast the partners let go of each other. High values mean fast dissociation, low ones slow dissociation. In general, kon refers to the second-order rate constant of association.
